In the test the target is AtCYT6-CTD (C-terminal cystatin domain of phytocystatin 6) (UniProt Q8H0X6). Briefly: Enzyme inhibition kinetics. To be noted: pH 5.5; 25 °C; 100 mM NaCl; 20 mM citric acid pH 5.5.
Sequence of UniProt Q8H0X6 (Q8H0X6 whole entry, the tested form may be a part): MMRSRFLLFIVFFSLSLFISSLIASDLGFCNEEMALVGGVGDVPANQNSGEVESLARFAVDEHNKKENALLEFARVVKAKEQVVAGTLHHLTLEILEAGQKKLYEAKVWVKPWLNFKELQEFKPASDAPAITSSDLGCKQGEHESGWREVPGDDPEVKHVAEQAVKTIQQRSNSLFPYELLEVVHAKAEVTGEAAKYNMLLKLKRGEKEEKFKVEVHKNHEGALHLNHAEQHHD

One may read the Ki as a measure of affinity in units of concentration, obtained from inhibition or displacement. Read a low Ki as higher affinity. Turning to “AtLEGβ (legumain isoform β, vacuolar processing enzyme β), activated catalytic domain”, the inhibition constant Ki came out at 0.61 ± 0.23 nM.

The values are drawn from article doi:10.1101/2023.05.22.541692.
